Reference: the RNAGym collection of RNA variant scans (doi:10.1021/acssynbio.7b00057)

B1: Pistol ribozyme (parent)
chain: GGGUCGUUGUUCCAUAAUCGCGUGGAUAUGGCACGCAAGUUUCUACCGGGCACCGUAAAUGUCCGACUGGAGCCGUUCGGGCGGCUAUAAACAGACCUCAGGCCCGAAGCGUGGCGGCACCUGCCGCCGGUGGUAAAAAAGAUCGGAAGAGCACACGUCU

Variants of: B1
Experiment: aptazyme ON/OFF ratio, guanine; higher = stronger switching; co-transcriptional cleavage with and without guanine

| Variant | aptazyme ON/OFF ratio |
| --- | --- |
| GGGUCGCGUGUGAAUAAUCGCGUGGAUAUGGCACGCAAGUUUCUACCGGGCACCGUAAAUGUCCGACUGGAGCCGUUCGGGCGGCUAUAAACAGACCUCAGGCCCGAAGCGUGGCGGCACCUGCCGCCGGUGGUAAAAAAGAUCGGAAGAGCACACGUCU [U7C U8G G9U U10G C12G C13A] | 1.07 |
| GGGUCGCGUGUGGAUAAUCGCGUGGAUAUGGCACGCAAGUUUCUACCGGGCACCGUAAAUGUCCGACUGGAGCCGUUCGGGCGGCUAUAAACAGACCUCAGGCCCGAAGCGUGGCGGCACCUGCCGCCGGUGGUAAAAAAGAUCGGAAGAGCACACGUCU [U7C U8G G9U U10G C12G C13G] | 1.08 |
| GGGUCGCGUGUGUAUAAUCGCGUGGAUAUGGCACGCAAGUUUCUACCGGGCACCGUAAAUGUCCGACUGGAGCCGUUCGGGCGGCUAUAAACAGACCUCAGGCCCGAAGCGUGGCGGCACCUGCCGCCGGUGGUAAAAAAGAUCGGAAGAGCACACGUCU [U7C U8G G9U U10G C12G C13U] | 1.07 |
| GGGUCGCGUGUCUAUAAUCGCGUGGAUAUGGCACGCAAGUUUCUACCGGGCACCGUAAAUGUCCGACUGGAGCCGUUCGGGCGGCUAUAAACAGACCUCAGGCCCGAAGCGUGGCGGCACCUGCCGCCGGUGGUAAAAAAGAUCGGAAGAGCACACGUCU [U7C U8G G9U U10G C13U] | 1.2 |
| GGGUCGCGUGUCGAUAAUCGCGUGGAUAUGGCACGCAAGUUUCUACCGGGCACCGUAAAUGUCCGACUGGAGCCGUUCGGGCGGCUAUAAACAGACCUCAGGCCCGAAGCGUGGCGGCACCUGCCGCCGGUGGUAAAAAAGAUCGGAAGAGCACACGUCU [U7C U8G G9U U10G C13G] | 1.17 |
| GGGUCGCGUGUCAAUAAUCGCGUGGAUAUGGCACGCAAGUUUCUACCGGGCACCGUAAAUGUCCGACUGGAGCCGUUCGGGCGGCUAUAAACAGACCUCAGGCCCGAAGCGUGGCGGCACCUGCCGCCGGUGGUAAAAAAGAUCGGAAGAGCACACGUCU [U7C U8G G9U U10G C13A] | 1.19 |
| GGGUCGCGUCGCAAUAAUCGCGUGGAUAUGGCACGCAAGUUUCUACCGGGCACCGUAAAUGUCCGACUGGAGCCGUUCGGGCGGCUAUAAACAGACCUCAGGCCCGAAGCGUGGCGGCACCUGCCGCCGGUGGUAAAAAAGAUCGGAAGAGCACACGUCU [U7C U8G G9U U10C U11G C13A] | 1.19 |
| GGGUCGCGUCGCGAUAAUCGCGUGGAUAUGGCACGCAAGUUUCUACCGGGCACCGUAAAUGUCCGACUGGAGCCGUUCGGGCGGCUAUAAACAGACCUCAGGCCCGAAGCGUGGCGGCACCUGCCGCCGGUGGUAAAAAAGAUCGGAAGAGCACACGUCU [U7C U8G G9U U10C U11G C13G] | 1.03 |
| GGGUCGCGUCGCUAUAAUCGCGUGGAUAUGGCACGCAAGUUUCUACCGGGCACCGUAAAUGUCCGACUGGAGCCGUUCGGGCGGCUAUAAACAGACCUCAGGCCCGAAGCGUGGCGGCACCUGCCGCCGGUGGUAAAAAAGAUCGGAAGAGCACACGUCU [U7C U8G G9U U10C U11G C13U] | 1.19 |
| GGGUCGCGUGUGCAUAAUCGCGUGGAUAUGGCACGCAAGUUUCUACCGGGCACCGUAAAUGUCCGACUGGAGCCGUUCGGGCGGCUAUAAACAGACCUCAGGCCCGAAGCGUGGCGGCACCUGCCGCCGGUGGUAAAAAAGAUCGGAAGAGCACACGUCU [U7C U8G G9U U10G C12G] | 1.08 |
| GGGUCGCGUGUACAUAAUCGCGUGGAUAUGGCACGCAAGUUUCUACCGGGCACCGUAAAUGUCCGACUGGAGCCGUUCGGGCGGCUAUAAACAGACCUCAGGCCCGAAGCGUGGCGGCACCUGCCGCCGGUGGUAAAAAAGAUCGGAAGAGCACACGUCU [U7C U8G G9U U10G C12A] | 1.15 |
| GGGUCGCGUGUUCAUAAUCGCGUGGAUAUGGCACGCAAGUUUCUACCGGGCACCGUAAAUGUCCGACUGGAGCCGUUCGGGCGGCUAUAAACAGACCUCAGGCCCGAAGCGUGGCGGCACCUGCCGCCGGUGGUAAAAAAGAUCGGAAGAGCACACGUCU [U7C U8G G9U U10G C12U] | 1.12 |
| GGGUCGCGUCGUAAUAAUCGCGUGGAUAUGGCACGCAAGUUUCUACCGGGCACCGUAAAUGUCCGACUGGAGCCGUUCGGGCGGCUAUAAACAGACCUCAGGCCCGAAGCGUGGCGGCACCUGCCGCCGGUGGUAAAAAAGAUCGGAAGAGCACACGUCU [U7C U8G G9U U10C U11G C12U C13A] | 1.24 |
| GGGUCGCGUCGUGAUAAUCGCGUGGAUAUGGCACGCAAGUUUCUACCGGGCACCGUAAAUGUCCGACUGGAGCCGUUCGGGCGGCUAUAAACAGACCUCAGGCCCGAAGCGUGGCGGCACCUGCCGCCGGUGGUAAAAAAGAUCGGAAGAGCACACGUCU [U7C U8G G9U U10C U11G C12U C13G] | 1.22 |
| GGGUCGCGUCGUUAUAAUCGCGUGGAUAUGGCACGCAAGUUUCUACCGGGCACCGUAAAUGUCCGACUGGAGCCGUUCGGGCGGCUAUAAACAGACCUCAGGCCCGAAGCGUGGCGGCACCUGCCGCCGGUGGUAAAAAAGAUCGGAAGAGCACACGUCU [U7C U8G G9U U10C U11G C12U C13U] | 1.41 |
| GGGUCGCGUGUUGAUAAUCGCGUGGAUAUGGCACGCAAGUUUCUACCGGGCACCGUAAAUGUCCGACUGGAGCCGUUCGGGCGGCUAUAAACAGACCUCAGGCCCGAAGCGUGGCGGCACCUGCCGCCGGUGGUAAAAAAGAUCGGAAGAGCACACGUCU [U7C U8G G9U U10G C12U C13G] | 1.1 |
| GGGUCGCGUGUUUAUAAUCGCGUGGAUAUGGCACGCAAGUUUCUACCGGGCACCGUAAAUGUCCGACUGGAGCCGUUCGGGCGGCUAUAAACAGACCUCAGGCCCGAAGCGUGGCGGCACCUGCCGCCGGUGGUAAAAAAGAUCGGAAGAGCACACGUCU [U7C U8G G9U U10G C12U C13U] | 1.32 |
| GGGUCGCGUGUUAAUAAUCGCGUGGAUAUGGCACGCAAGUUUCUACCGGGCACCGUAAAUGUCCGACUGGAGCCGUUCGGGCGGCUAUAAACAGACCUCAGGCCCGAAGCGUGGCGGCACCUGCCGCCGGUGGUAAAAAAGAUCGGAAGAGCACACGUCU [U7C U8G G9U U10G C12U C13A] | 1.17 |

| Variant | aptazyme ON/OFF ratio |
| --- | --- |
| GGGUCGCGUCCUUAUAAUCGCGUGGAUAUGGCACGCAAGUUUCUACCGGGCACCGUAAAUGUCCGACUGGAGCCGUUCGGGCGGCUAUAAACAGACCUCAGGCCCGAAGCGUGGCGGCACCUGCCGCCGGUGGUAAAAAAGAUCGGAAGAGCACACGUCU [U7C U8G G9U U10C U11C C12U C13U] | 1.09 |
| GGGUCGCGUCGACAUAAUCGCGUGGAUAUGGCACGCAAGUUUCUACCGGGCACCGUAAAUGUCCGACUGGAGCCGUUCGGGCGGCUAUAAACAGACCUCAGGCCCGAAGCGUGGCGGCACCUGCCGCCGGUGGUAAAAAAGAUCGGAAGAGCACACGUCU [U7C U8G G9U U10C U11G C12A] | 1.14 |
| GGGUCGCGUCGGCAUAAUCGCGUGGAUAUGGCACGCAAGUUUCUACCGGGCACCGUAAAUGUCCGACUGGAGCCGUUCGGGCGGCUAUAAACAGACCUCAGGCCCGAAGCGUGGCGGCACCUGCCGCCGGUGGUAAAAAAGAUCGGAAGAGCACACGUCU [U7C U8G G9U U10C U11G C12G] | 1.21 |
| GGGUCGCGUCGUCAUAAUCGCGUGGAUAUGGCACGCAAGUUUCUACCGGGCACCGUAAAUGUCCGACUGGAGCCGUUCGGGCGGCUAUAAACAGACCUCAGGCCCGAAGCGUGGCGGCACCUGCCGCCGGUGGUAAAAAAGAUCGGAAGAGCACACGUCU [U7C U8G G9U U10C U11G C12U] | 1.28 |
| GGGUCGCGUCGAGAUAAUCGCGUGGAUAUGGCACGCAAGUUUCUACCGGGCACCGUAAAUGUCCGACUGGAGCCGUUCGGGCGGCUAUAAACAGACCUCAGGCCCGAAGCGUGGCGGCACCUGCCGCCGGUGGUAAAAAAGAUCGGAAGAGCACACGUCU [U7C U8G G9U U10C U11G C12A C13G] | 1.13 |
| GGGUCGCGUCGAAAUAAUCGCGUGGAUAUGGCACGCAAGUUUCUACCGGGCACCGUAAAUGUCCGACUGGAGCCGUUCGGGCGGCUAUAAACAGACCUCAGGCCCGAAGCGUGGCGGCACCUGCCGCCGGUGGUAAAAAAGAUCGGAAGAGCACACGUCU [U7C U8G G9U U10C U11G C12A C13A] | 1.1 |
| GGGUCGCGUCGAUAUAAUCGCGUGGAUAUGGCACGCAAGUUUCUACCGGGCACCGUAAAUGUCCGACUGGAGCCGUUCGGGCGGCUAUAAACAGACCUCAGGCCCGAAGCGUGGCGGCACCUGCCGCCGGUGGUAAAAAAGAUCGGAAGAGCACACGUCU [U7C U8G G9U U10C U11G C12A C13U] | 1.22 |
| GGGUCGCGUGUCCAUAAUCGCGUGGAUAUGGCACGCAAGUUUCUACCGGGCACCGUAAAUGUCCGACUGGAGCCGUUCGGGCGGCUAUAAACAGACCUCAGGCCCGAAGCGUGGCGGCACCUGCCGCCGGUGGUAAAAAAGAUCGGAAGAGCACACGUCU [U7C U8G G9U U10G] | 1.28 |
| GGGUCGCGUGUAUAUAAUCGCGUGGAUAUGGCACGCAAGUUUCUACCGGGCACCGUAAAUGUCCGACUGGAGCCGUUCGGGCGGCUAUAAACAGACCUCAGGCCCGAAGCGUGGCGGCACCUGCCGCCGGUGGUAAAAAAGAUCGGAAGAGCACACGUCU [U7C U8G G9U U10G C12A C13U] | 1.15 |
| GGGUCGCGUGUAGAUAAUCGCGUGGAUAUGGCACGCAAGUUUCUACCGGGCACCGUAAAUGUCCGACUGGAGCCGUUCGGGCGGCUAUAAACAGACCUCAGGCCCGAAGCGUGGCGGCACCUGCCGCCGGUGGUAAAAAAGAUCGGAAGAGCACACGUCU [U7C U8G G9U U10G C12A C13G] | 1.09 |
| GGGUCGCGUGUAAAUAAUCGCGUGGAUAUGGCACGCAAGUUUCUACCGGGCACCGUAAAUGUCCGACUGGAGCCGUUCGGGCGGCUAUAAACAGACCUCAGGCCCGAAGCGUGGCGGCACCUGCCGCCGGUGGUAAAAAAGAUCGGAAGAGCACACGUCU [U7C U8G G9U U10G C12A C13A] | 1.12 |
| GGGUCGCGUCGCCAUAAUCGCGUGGAUAUGGCACGCAAGUUUCUACCGGGCACCGUAAAUGUCCGACUGGAGCCGUUCGGGCGGCUAUAAACAGACCUCAGGCCCGAAGCGUGGCGGCACCUGCCGCCGGUGGUAAAAAAGAUCGGAAGAGCACACGUCU [U7C U8G G9U U10C U11G] | 1.23 |
| GGGUCGCGUCGGAAUAAUCGCGUGGAUAUGGCACGCAAGUUUCUACCGGGCACCGUAAAUGUCCGACUGGAGCCGUUCGGGCGGCUAUAAACAGACCUCAGGCCCGAAGCGUGGCGGCACCUGCCGCCGGUGGUAAAAAAGAUCGGAAGAGCACACGUCU [U7C U8G G9U U10C U11G C12G C13A] | 1.15 |
| GGGUCGCGUCGGGAUAAUCGCGUGGAUAUGGCACGCAAGUUUCUACCGGGCACCGUAAAUGUCCGACUGGAGCCGUUCGGGCGGCUAUAAACAGACCUCAGGCCCGAAGCGUGGCGGCACCUGCCGCCGGUGGUAAAAAAGAUCGGAAGAGCACACGUCU [U7C U8G G9U U10C U11G C12G C13G] | 1.15 |
| GGGUCGCGUCGGUAUAAUCGCGUGGAUAUGGCACGCAAGUUUCUACCGGGCACCGUAAAUGUCCGACUGGAGCCGUUCGGGCGGCUAUAAACAGACCUCAGGCCCGAAGCGUGGCGGCACCUGCCGCCGGUGGUAAAAAAGAUCGGAAGAGCACACGUCU [U7C U8G G9U U10C U11G C12G C13U] | 1.08 |
| GGGUCGCGUCCCUAUAAUCGCGUGGAUAUGGCACGCAAGUUUCUACCGGGCACCGUAAAUGUCCGACUGGAGCCGUUCGGGCGGCUAUAAACAGACCUCAGGCCCGAAGCGUGGCGGCACCUGCCGCCGGUGGUAAAAAAGAUCGGAAGAGCACACGUCU [U7C U8G G9U U10C U11C C13U] | 1.03 |
| GGGUCGCGUCCCGAUAAUCGCGUGGAUAUGGCACGCAAGUUUCUACCGGGCACCGUAAAUGUCCGACUGGAGCCGUUCGGGCGGCUAUAAACAGACCUCAGGCCCGAAGCGUGGCGGCACCUGCCGCCGGUGGUAAAAAAGAUCGGAAGAGCACACGUCU [U7C U8G G9U U10C U11C C13G] | 1.05 |
| GGGUCGCGUCCCAAUAAUCGCGUGGAUAUGGCACGCAAGUUUCUACCGGGCACCGUAAAUGUCCGACUGGAGCCGUUCGGGCGGCUAUAAACAGACCUCAGGCCCGAAGCGUGGCGGCACCUGCCGCCGGUGGUAAAAAAGAUCGGAAGAGCACACGUCU [U7C U8G G9U U10C U11C C13A] | 1.03 |
